Laboratory results from patent publication US20070042463A1 (BURNHAM INSTITUTE, published 2007).

B4: empty (LexA DNA-binding domain without insert) (other, UniProt P0A7C2 1-202, looked up)
chain: MKALTARQQEVFDLIRDHISQTGMPPTRAEIAQRLGFRSPNAAEEHLKALARKGVIEIVSGASRGIRLLQEEEEGLPLVGRVAAGEPLLAQQHIEGHYQVDPSLFKPNADFLLRVSGMSMKDIGIMDGDLLAVHKTQDVRNGQVVVARIDDEVTVKRLKKQGNKVELLPENSEFKPIVVDLRQQSFTIEGLAVGVIRNGDWL
B5: SIP-L (other)
chain: MASEELQKDLEEVKVLLEKATRKRVRDALTAEKSKIETEIKNKMQQKSQKKAELLDNEKPAAVVAPITTGYTVKISNYGWDQSDKFVKIYITLTGVHQVPTENVQVHFTERSFDLLVKNLNGKSYSMIVNNLLKPISVEGSSKKVKTDTVLILCRKKVENTRWDYLTQVEKECKEKEKPSYDTETDPSEGLMNVLKKIYEDGDDDMKRTINKAWVESREKQAKGDTEF

Tests used:
SAF-1 = target: T1, SAF-1 (human, UniProt Q9Y3I1 92-522); experiment: yeast two-hybrid (FIG. 6A)
T1 construct: also called SAF-1α; Skp1-Associated F-box protein-1
T1 sequence: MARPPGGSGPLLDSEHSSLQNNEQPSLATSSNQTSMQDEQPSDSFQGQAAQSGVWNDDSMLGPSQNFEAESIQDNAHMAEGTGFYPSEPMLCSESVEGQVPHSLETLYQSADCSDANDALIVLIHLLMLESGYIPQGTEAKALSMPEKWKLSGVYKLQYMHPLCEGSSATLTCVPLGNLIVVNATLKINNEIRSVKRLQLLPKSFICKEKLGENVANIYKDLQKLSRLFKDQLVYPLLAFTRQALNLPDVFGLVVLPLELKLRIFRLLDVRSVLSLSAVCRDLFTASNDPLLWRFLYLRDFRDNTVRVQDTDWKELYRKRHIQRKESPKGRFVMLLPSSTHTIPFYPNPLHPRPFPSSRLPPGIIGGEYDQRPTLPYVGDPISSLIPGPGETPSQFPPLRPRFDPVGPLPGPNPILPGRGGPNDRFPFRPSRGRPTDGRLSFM

HA-TRAF6 = experiment: cell-based or functional assay
SIP-L [1] = target: B5; experiment: yeast two-hybrid; LexA-SIP-L with B42-SIP-S; Leu+ growth - and β-Gal -
Siah-1 (22-298) = target: T2, Siah-1 (22-298) (human, UniProt Q8IUQ4 6-282); experiment: yeast two-hybrid library screen; LexA-Siah-1 (22-298) bait, human embryonic brain cDNA clones
T2 construct: also called Siah-1α amino acids 22-298; LexA/Siah-1 bait
T2 sequence: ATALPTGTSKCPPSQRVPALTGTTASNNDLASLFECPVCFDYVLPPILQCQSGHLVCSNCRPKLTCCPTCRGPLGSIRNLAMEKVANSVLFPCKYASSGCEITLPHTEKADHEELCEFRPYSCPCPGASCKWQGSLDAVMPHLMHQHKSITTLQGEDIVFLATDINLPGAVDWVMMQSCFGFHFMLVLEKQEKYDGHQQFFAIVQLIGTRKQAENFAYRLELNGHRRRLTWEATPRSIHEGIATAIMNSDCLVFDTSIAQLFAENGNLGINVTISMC

SIP-L [2] = target: B5; experiment: yeast two-hybrid; empty LexA with B42-SIP-L; Leu+ growth - and β-Gal -
[3] = target: the molecule itself; experiment: yeast two-hybrid; LexA-SIP-L with B42-SIP-L; growth on leucine-deficient media (Leu+)
[4] = target: B4; experiment: yeast two-hybrid; empty LexA with B42-APC(2681-2843); Leu+ growth - and β-Gal -

B1: Siah-1 (other)
chain: MVIIIFLLPPYVFISEMSRQTATALPTGTSKCPPSQRVPALTGTTASNNDLASLFECPVCFDYVLPPILQCQSGHLVCSNCRPKLTCCPTCRGPLGSIRNLAMEKVANSVLFPCKYASSGCEITLPHTEKADHEELCEFRPYSCPCPGASCKWQGSLDAVMPHLMHQHKSITTLQGEDIVFLATDINLPGAVDWVMMQSCFGFHFMLVLEKQEKYDGHQQFFAIVQLIGTRKQAENFAYRLELNGHRRRLTWEATPRSIHEGIATAIMNSDCLVFDTSIAQLFAENGNLGINVTISMC
notes: also called Siah-1α; Siah 1α
Question: Does B1 bind (SAF-1)?
Answer: no binding

B2: ODC-RANK peptide (protein, part only; not given: Order of parts uncertain, part only)
chain, part: MEQKLISEEDLMNNFGNEEFDCHFLDEGFTAKDILDQKINEVSSSDDKDAFYVADLGDILKKHLRWLKALPRVTPFYAVKCNDSKAIVKTLAATGTGFDCASKTEIQLVQSLGVPPERIIYANPCKQVSQIKYAANNGVQMMTFDSEVELMKVARAHPKAKLVLRIATDDSKAVCRLSVKFGATLRTSRLLLERAKELNIDVVGVSFHVGSGCTDPETFVQAISDARCVFDMGAEVGFSMYLLDIGGGFPGSEDVKLKFEEITGVINPALDKYFPSDSGVRIIAEPGRYYVASAFTLAVNIIAKKIVLKEQTGSDDEDESSEQTFMYYVNDGVYGSFNCILYDHAHVKPLLQKRPKPDEKYYSSSIWGPTCDGLDRIVERCDLPEMHVGDWMLFENMGAYTVAAASTFNGFQRPTIYYVMSGPAWQLMQQFQNPDFPPEVEEQDASTLPVSCAWESGMKRHRAACASASINVAGGGSGGGGSGGGGSGGGGS
Question: B2 was tested. Which half-life of HA-TRAF6 (35S pulse-chase), ODC-RANKp with AZ (HA-TRAF6) did it give?
Answer: < 1 h

Question: And the half-life of HA-TRAF6 (35S pulse-chase), ODC-RANKp without AZ (HA-TRAF6)?
Answer: 2 h

B3: SIP-S (other)
chain: MASEELQKDLEEVKVLLEKATRKRVRDALTAEKSKIETEIKNKMQQKSQKKAELLDNEKPAAVVAPITTGYTDGISQISL
notes: B42 fusion in yeast two-hybrid
Question: Does B3 bind (SIP-L [1])?
Answer: no binding

Question: Does B3 bind (Siah-1 (22-298))?
Answer: binds

Question: Does B4 bind (SIP-L [2])?
Answer: no binding

Question: Does B5 bind [3]?
Answer: binds

Question: Does B5 bind (Siah-1 (22-298))?
Answer: binds

B6: APC (2681-2843) (other, human, UniProt P25054 2681-2843, looked up)
chain: PVIDSVSEKANPNIKDSKDNQAKQNVGNGSVPMRTVGLENRLNSFIQVDAPDQKGTEIKPGQNNPVPVSETNESSIVERTPFSSSSSSKHSSPSGTVAARVTPFNYNPSPRKSSADSTSARPSQIPTPVNNNTKKRDSKTDSTESSGTQSPKRHSGSYLVTSV
notes: LexA or B42 fusion in yeast two-hybrid
Question: Does B6 bind [4]?
Answer: no binding

Question: Does B6 bind (Siah-1 (22-298))?
Answer: binds
